B1: HDV Ribozyme (parent)
chain: GGCCGGCAUGGUCCCAGCCUCCUCGCUGGCGCCGGCUGGGCAACAUUCCGAGGGGACCGUCCCCUCGGUAAUGGCGAAUGGGACCCA

Variants of: B1
Assay: self-cleavage, relative activity (ratio to wild type); higher = more cleavage; co-transcriptional

Which self-cleavage does the source give for GGCCGGCAUGGUCCCAGCCUCCUCGCUGGCGCCGGCUGGGCAACAUUCCCAGGGGACCGUCCCCUCGGUAAAGGCGAAUGGGACCCA [G50C U72A] here?
Its self-cleavage is 0.789.

With GGCCGGCAUGGUCCCAGCCUCCUCGCUGGCGCCGGCUGGGCAACAUUCCUAGGGGACCGUCCCCUCGUUAAUGGCGAAUGGGACCCA [G50U G68U] as the variant, how does the self-cleavage read?
The self-cleavage was 0.576.

Which self-cleavage does the source give for GGCCGGCAUGGUCCCAGCCUCCUCGCUGGCGCCGGCUGGGCAACAUUCCGCGUGGACCGUCCCCUCGGUAAUGGCGAAUGGGACCCA [A51C G53U] here?
The self-cleavage was 0.69.

Which self-cleavage does the source give for GGCCGGCAUGGUCCCAGCCUCCUCGCUGGCGCCGGCUGGGCAACAUUCCGCGAGGACCGUCCCCUCGGUAAUGGCGAAUGGGACCCA [A51C G53A] here?
Its self-cleavage is 0.491.

For GGCCGGCAUGGUCCCAGCCUCCUCGCUGGCGCCGGCUGGGCAACAUUCCUAGGGGACCGUCCCCGCGGUAAUGGCGAAUGGGACCCA [G50U U65G], which self-cleavage is on record?
Its self-cleavage is 0.945.

For GGCCGGCAUGGUCCCAGCCUCCUCGCUGGCGCCGGCUGGGCAACAUUCCUAGGGGACCGUCCCCUCGGUAAUGGCGAAUGGAACCCA [G50U G82A], which self-cleavage is on record?
Its self-cleavage is 0.499.

For GGCCGGCAUGGUCCCAGCCUCCUCGCUGGCGCCGGCUGGGCAACAUUCCGCGGGGACCGUCCCCUCGGUAAUGGCGAAUGGGACCAA [A51C C86A], which self-cleavage is on record?
The self-cleavage was 0.872.

For GGCCGGCAUGGUCCCAGCCUCCUCGCUGGCGCCGGCUGGGCAACAUUCCGCGGGGACCGUCCCCUCGGUAAUGGCGAAUGGGACCUA [A51C C86U], which self-cleavage is on record?
The self-cleavage was 1.01.

Which self-cleavage does the source give for GGCCGGCAUGGUCCCAGCCUCCUCGCUGGCGCCGGCUGGGCAACAUUCCGCGGGGACCGUCCCCUCGGUAAUGGCGAAUGGGACCGA [A51C C86G] here?
The self-cleavage was 0.712.

Which self-cleavage does the source give for GGCCGGCAUGGUCCCAGCCUCCUCGCUGGCGCCGGCUGGGCAACAUUCCGCGGGGACCGUCCCCUCGGUAAUGGCGAAUGGGCCCCA [A51C A83C] here?
The self-cleavage was 0.571.

For GGCCGGCAUGGUCCCAGCCUCCUCGCUGGCGCCGGCUGGGCAACAUUCCGCGGGGACCGUCCCCUCGGUAAUGGCGAAUGAGACCCA [A51C G81A], which self-cleavage is on record?
Its self-cleavage is 0.323.

With GGCCGGCAUGGUCCCAGCCUCCUCGCUGGCGCCGGCUGGGCAACAUUCCUAGGGGACCGUCCCCUCGGUAAUGGCGUAUGGGACCCA [G50U A77U] as the variant, how does the self-cleavage read?
Its self-cleavage is 0.62.

With GGCCGGCAUGGUCCCAGCCUCCUCGCUGGCGCCGGCUGGGCAACAUUCCGCGGGGACCGUCCCCUCGGUAAUGGCGAAUGGGAACCA [A51C C84A] as the variant, how does the self-cleavage read?
Its self-cleavage is 0.675.

With GGCCGGCAUGGUCCCAGCCUCCUCGCUGGCGCCGGCUGGGCAACAUUCCGGGGGGACCGUCCCGUCGGUAAUGGCGAAUGGGACCCA [A51G C64G] as the variant, how does the self-cleavage read?
Its self-cleavage is 0.902.

Which self-cleavage does the source give for GGCCGGCAUGGUCCCAGCCUCCUCGCUGGCGCCGGCUGGGCAACAUUCCGGGGGGACCGUCCCUUCGGUAAUGGCGAAUGGGACCCA [A51G C64U] here?
Its self-cleavage is 0.892.

Which self-cleavage does the source give for GGCCGGCAUGGUCCCAGCCUCCUCGCUGGCGCCGGCUGGGCAACAUUCCGCGGGGACCGUCCCCUCGGUAAUGGCGAAUUGGACCCA [A51C G80U] here?
The self-cleavage was 0.199.

Which self-cleavage does the source give for GGCCGGCAUGGUCCCAGCCUCCUCGCUGGCGCCGGCUGGGCAACAUUCCUAGGGGACCGUCCCCUGGGUAAUGGCGAAUGGGACCCA [G50U C66G] here?
The self-cleavage was 0.787.

For GGCCGGCAUGGUCCCAGCCUCCUCGCUGGCGCCGGCUGGGCAACAUUCCUAGGGGACCGUCCCCUCGGUAAUGGCGAAUUGGACCCA [G50U G80U], which self-cleavage is on record?
The self-cleavage was 0.2.

With GGCCGGCAUGGUCCCAGCCUCCUCGCUGGCGCCGGCUGGGCAACAUUCCUAGGGGACCGUCCCCUCGGUAAUGGCGAAUAGGACCCA [G50U G80A] as the variant, how does the self-cleavage read?
Its self-cleavage is 0.486.

For GGCCGGCAUGGUCCCAGCCUCCUCGCUGGCGCCGGCUGGGCAACAUUCCUAGGGGACCGUCCCCUCGGUAAUGGCGAACGGGACCCA [G50U U79C], which self-cleavage is on record?
Its self-cleavage is 0.507.

Which self-cleavage does the source give for GGCCGGCAUGGUCCCAGCCUCCUCGCUGGCGCCGGCUGGGCAACAUUCCUAGGGGACCGUCCCCUCGGUAAUGGCGAAUGGGGCCCA [G50U A83G] here?
Its self-cleavage is 0.818.

Which self-cleavage does the source give for GGCCGGCAUGGUCCCAGCCUCCUCGCUGGCGCCGGCUGGGCAACAUUCCGCGGGGACCAUCCCCUCGGUAAUGGCGAAUGGGACCCA [A51C G59A] here?
Its self-cleavage is 0.92.

Which self-cleavage does the source give for GGCCGGCAUGGUCCCAGCCUCCUCGCUGGCGCCGGCUGGGCAACAUUCCGCGGGGACCGACCCCUCGGUAAUGGCGAAUGGGACCCA [A51C U60A] here?
The self-cleavage was 1.11.

With GGCCGGCAUGGUCCCAGCCUCCUCGCUGGCGCCGGCUGGGCAACAUUCCUAGGGGACCGUCCCCUCGGUAAUGGCGAAUGGGACCCC [G50U A87C] as the variant, how does the self-cleavage read?
The self-cleavage was 0.935.

Which self-cleavage does the source give for GGCCGGCAUGGUCCCAGCCUCCUCGCUGGCGCCGGCUGGGCAACAUUCCGCGGGGACCGUCCCCUCGGUCAUGGCGAAUGGGACCCA [A51C A70C] here?
Its self-cleavage is 1.03.

With GGCCGGCAUGGUCCCAGCCUCCUCGCUGGCGCCGGCUGGGCAACAUUCCUAGGGUACCGUCCCCUCGGUAAUGGCGAAUGGGACCCA [G50U G55U] as the variant, how does the self-cleavage read?
The self-cleavage was 0.906.

For GGCCGGCAUGGUCCCAGCCUCCUCGCUGGCGCCGGCUGGGCAACAUUCCUAGGGCACCGUCCCCUCGGUAAUGGCGAAUGGGACCCA [G50U G55C], which self-cleavage is on record?
Its self-cleavage is 1.03.

Which self-cleavage does the source give for GGCCGGCAUGGUCCCAGCCUCCUCGCUGGCGCCGGCUGGGCAACAUUCCGGGGGGACCGUCCCCUCGGUAGUGGCGAAUGGGACCCA [A51G A71G] here?
Its self-cleavage is 0.752.

For GGCCGGCAUGGUCCCAGCCUCCUCGCUGGCGCCGGCUGGGCAACAUUCCGCGGGGACCGUCCCCUCGGUAAUGGCGAAUGGUACCCA [A51C G82U], which self-cleavage is on record?
The self-cleavage was 0.386.

For GGCCGGCAUGGUCCCAGCCUCCUCGCUGGCGCCGGCUGGGCAACAUUCCGGGAGGACCGUCCCCUCGGUAAUGGCGAAUGGGACCCA [A51G G53A], which self-cleavage is on record?
Its self-cleavage is 0.831.

Which self-cleavage does the source give for GGCCGGCAUGGUCCCAGCCUCCUCGCUGGCGCCGGCUGGGCAACAUUCCUAGGGGACCGUCCCCUCGGUAAUGGCCAAUGGGACCCA [G50U G76C] here?
Its self-cleavage is 1.19.

Which self-cleavage does the source give for GGCCGGCAUGGUCCCAGCCUCCUCGCUGGCGCCGGCUGGGCAACAUUCCGCGGGGACCGUCCCCUCGGUAAUGGCCAAUGGGACCCA [A51C G76C] here?
Its self-cleavage is 0.982.

Reference: the RNAGym collection of RNA variant scans (doi:10.7554/elife.80360)
